Drawing on the RNAGym collection of RNA variant scans (doi:10.7554/elife.90254), this text covers self-cleavage for 39 variants.

To fix the notation:
B1: LINE1-full (parent)
chain: UACGUAGGUGGUUUUCCCCUGAUAGUGCUAAGGGGGCCUGGAAGUUUGGACUGGGCAGAGCUCAACACAGCGUGGCAAAGUGGCUGUGGCUAGACUGCCUCUCUGGAUUCCUCGUCACUCAGCAGGGCAUCUCUGAGAGAAAUGCC

In this series the parent is B1. The experiment in a line: self-cleavage, relative activity (ratio to wild type); higher = more cleavage; in vitro, sequencing; the parent is a self-cleaving ribozyme.
UACGUAGGUGGUUUUCCCCUGAUAGUGCCAAGGGGGCCUGGAAGUUUGGACUGGGCAGAGCUCAACACAGCGUGGCAAAGUGGCUGUGGCUAGACUGCCUCUCUGGAUUCCCCGUCACUCAGCAGGGCAUCUCUGAGAGAAAUGCC [U29C U112C]: the self-cleavage is 1.07.
The same measure for UACGUAGGUGGUUUUCCCCUGAUAGUGCCAAGGGGGCCUGGAAGUUUGGACUGGGCAGAGCUCAACACAGCGUGGCAAAGUGGCUGUGGCUAGACUGCCUCUCUGGAUUCCUCGUCACACAGCAGGGCAUCUCUGAGAGAAAUGCC [U29C U119A]: 1.21.
As for UACGUAGGUGGUUUUCCCCUGAUAGUGCCAAGGGGGCCUGGAAGUUUGGACUGGGCAGAGCUCAACACAGCGUGGCAAAGUGGCUGUGGCUAGACUGCCUCUCUGGAUUCCUCGUCACCCAGCAGGGCAUCUCUGAGAGAAAUGCC [U29C U119C], the self-cleavage was 1.45.
The value for UACGUAGGUGGUUUUCCCCUGAUAGUGCCAAGGGGGCCUGGAAGCUUGGACUGGGCAGAGCUCAACACAGCGUGGCAAAGUGGCUGUGGCUAGACUGCCUCUCUGGAUUCCUCGUCACUCAGCAGGGCAUCUCUGAGAGAAAUGCC [U29C U45C] was 1.08; that for UACGUAGGUGGUUUUCCCCUGAUAGUGCCAAGGGGGCCUGGAAGGUUGGACUGGGCAGAGCUCAACACAGCGUGGCAAAGUGGCUGUGGCUAGACUGCCUCUCUGGAUUCCUCGUCACUCAGCAGGGCAUCUCUGAGAGAAAUGCC [U29C U45G] was 0.79.
The same measure for UACGUAGGUGGUUUUCCCCUGAUAGUGCCAAGGGGGCCUGGAAGUUUGGACUGGGCAGAGCUCAACACAGCGUGGCAAAGUGGCUGUGGCUAGACUGCCUCUCUGGACUCCUCGUCACUCAGCAGGGCAUCUCUGAGAGAAAUGCC [U29C U108C]: 1.27; for UACGUAGGUGGUUUUCCCCUGAUAGUGCCAAGGGGGCCUGGAAGUUUGGACUAGGCAGAGCUCAACACAGCGUGGCAAAGUGGCUGUGGCUAGACUGCCUCUCUGGAUUCCUCGUCACUCAGCAGGGCAUCUCUGAGAGAAAUGCC [U29C G53A]: 0.94; for UACGUAGGUGGUUUUCCCCUGAUAGUGCCAAGGGGGCCUGGAAGUUUGGACUGGGCAGAGCUCAACACAGCGUGGCAAAGUGGCUGUGGCUAGACUGCCUCUCCGGAUUCCUCGUCACUCAGCAGGGCAUCUCUGAGAGAAAUGCC [U29C U104C]: 1.
In the case of UACGUAGGUGGUUUUCCCCUGAUAGUGCCAAGGGGGCCUGGAAGUUUGGACUGGGCAGAGCUCAACACAGCGUGGCAAAGUGGCUGUGGCUAGACUGCCUCUCAGGAUUCCUCGUCACUCAGCAGGGCAUCUCUGAGAGAAAUGCC [U29C U104A], the self-cleavage came to 1.12.
The value for UACGUAGGUGGUUUUCCCCUGAUAGUGCCAAGGGGGCCUGGAAGUUUAGACUGGGCAGAGCUCAACACAGCGUGGCAAAGUGGCUGUGGCUAGACUGCCUCUCUGGAUUCCUCGUCACUCAGCAGGGCAUCUCUGAGAGAAAUGCC [U29C G48A] was 0.88.
Turning to UACGUAGGUGGUUUUCCCCUGAUAGUGCCAAGGGGGCCUGGAAGUUUGGACAGGGCAGAGCUCAACACAGCGUGGCAAAGUGGCUGUGGCUAGACUGCCUCUCUGGAUUCCUCGUCACUCAGCAGGGCAUCUCUGAGAGAAAUGCC [U29C U52A], the self-cleavage was found to be 1.16.
The value for UACGUAGGUGGUUUUCCCCUGAUAGUGCCAAGGGGGCCUGGAAGUUUGGACCGGGCAGAGCUCAACACAGCGUGGCAAAGUGGCUGUGGCUAGACUGCCUCUCUGGAUUCCUCGUCACUCAGCAGGGCAUCUCUGAGAGAAAUGCC [U29C U52C] was 1.84; that for UACGUAGGUGGUUUUCCCCUGAUAGUGCCAAGGGGGCCUGGAAGUUUGGACUGGGCAGAGCUCAACACAGCGUGGCAAAGUGGCUGUGGCUAGACUGCCUCUCUGGAUUCCUCGUCACUCAGCAGGGCAGCUCUGAGAGAAAUGCC [U29C U130G] was 1.84.
The same measure for UACGUAGGUGGUUUUCCCCUGAUAGUGCCAAGGGGGCCUGGAACUUUGGACUGGGCAGAGCUCAACACAGCGUGGCAAAGUGGCUGUGGCUAGACUGCCUCUCUGGAUUCCUCGUCACUCAGCAGGGCAUCUCUGAGAGAAAUGCC [U29C G44C]: 1.82.
The same measure for UACGUAGGUGGUUUUCCCCUGAUAGUGCCAAGGGGGCCUGGAAGUUUGGACUGGGCAGAGCUCAACACAGCGUGGCAAAGUGGCUGUGACUAGACUGCCUCUCUGGAUUCCUCGUCACUCAGCAGGGCAUCUCUGAGAGAAAUGCC [U29C G89A]: 0.06; for UACGUAGGUGGUUUUCCCCUGAUAGUGCCAAGGGGGCCUGGAAGUUUGGACUGGGCAGAGCUCAACACAGCGUGGCAAAGUGGCUGUGGCUAGACUGCCUCCCUGGAUUCCUCGUCACUCAGCAGGGCAUCUCUGAGAGAAAUGCC [U29C U102C]: 1.1.
Consider UACGUAGGUGGUUUUCCCCUGAUAGUGCCAAGGGGGCCUGGAAGUUUGGACUGGGCAGAGCUCAACACAGCGUGGCAAAGUGGCUGUGGCUAGACUGCCUCACUGGAUUCCUCGUCACUCAGCAGGGCAUCUCUGAGAGAAAUGCC [U29C U102A], for which the self-cleavage was determined as 1.84.
For the variant UACGUAGGUGGUUUUCCCCUGAUAGUGCCAAGGGGGCCUGGAAGUUUGGACUGGGCAGAGCUCAACACAGCGUGGCAAAGUGACUGUGGCUAGACUGCCUCUCUGGAUUCCUCGUCACUCAGCAGGGCAUCUCUGAGAGAAAUGCC [U29C G83A], the self-cleavage was 0.43.
The same measure for UACGUAGGUGGUUUUCCCCUGAUAGUGCCAAGGGGGCCUGGAAGUUAGGACUGGGCAGAGCUCAACACAGCGUGGCAAAGUGGCUGUGGCUAGACUGCCUCUCUGGAUUCCUCGUCACUCAGCAGGGCAUCUCUGAGAGAAAUGCC [U29C U47A]: 1.11; for UACGUAGGUGGUUUUCCCCUGAUAGUGCCAAGGGGGCCUGGAAGUUCGGACUGGGCAGAGCUCAACACAGCGUGGCAAAGUGGCUGUGGCUAGACUGCCUCUCUGGAUUCCUCGUCACUCAGCAGGGCAUCUCUGAGAGAAAUGCC [U29C U47C]: 1.85.
The same measure for UACGUAGGUGGUUUUCCCCUGAUAGUGCCAAGGGGGCCUGGAAGUUUGGACUGGGCAGAGCUCAACACAGCGUGGCAAAGUGGCUGUGGCUAGACUGCCCCUCUGGAUUCCUCGUCACUCAGCAGGGCAUCUCUGAGAGAAAUGCC [U29C U100C]: 1.49; for UACGUAGGUGGUUUUCCCCUGAUAGUGCCAAGGGGGCCUGGAAGUUUGGACUGGGCAGAGCUCAACACAGCGUGGCAAAGUGGCUGUGGCUAGACUGCCUCUCUGGAUUCCUCGCCACUCAGCAGGGCAUCUCUGAGAGAAAUGCC [U29C U115C]: 1.75.
The same measure for UACGUAGGUGGUUUUCCCCUGAUAGUGCCAAGGGGGCCUGGAAGUUUGGACUGGGCAGAGCUCAACACAGCGUGGCAAAGUGGCUGUGGCUAGACUGCCUCUCUGGAUUCCUCGUCACUCAGCAGGGCAUCCCUGAGAGAAAUGCC [U29C U132C]: 1.46.
Consider UACGUAGGUGGUUUUCCCCUGAUAGUGCCAAGGGGGCCUGGAAGUUUGGACUGGGCAGAGCUCAACACAGCGUGGCAAAGUGGCUGUGGCUAGACUGCCUCUCUGGAUUCCUCGUCACUCAGCAGGGCAUCACUGAGAGAAAUGCC [U29C U132A], for which the self-cleavage was 1.47.
The value for UACGUAGGUGGUUUUCCCCUGAUAGUGCCAAGGGGGCCUGGAAGUUUGGACUGGGCAGAGCUCAACACAGCGCGGCAAAGUGGCUGUGGCUAGACUGCCUCUCUGGAUUCCUCGUCACUCAGCAGGGCAUCUCUGAGAGAAAUGCC [U29C U73C] was 1.3; that for UACGUAGGUGGUUUUCCCCUGAUAGUGCCAAGGGGGCCUGGAAGUUUGGACUGGGCAGAGCUCAACACAGCGUGGCAAAGUGGCAGUGGCUAGACUGCCUCUCUGGAUUCCUCGUCACUCAGCAGGGCAUCUCUGAGAGAAAUGCC [U29C U85A] was 0.12.
The value for UACGUAGGUGGUUUUCCCCUGAUAGUGCCAAGGGGGCCUGGAAGUUUGGACUGGGCAGAGCUCAACACAGCGUGGCAAAGUGGCCGUGGCUAGACUGCCUCUCUGGAUUCCUCGUCACUCAGCAGGGCAUCUCUGAGAGAAAUGCC [U29C U85C] was 0.28; that for UACGUAGGUGGUUUUCCCCUGAUAGUGCCAAGGGGACCUGGAAGUUUGGACUGGGCAGAGCUCAACACAGCGUGGCAAAGUGGCUGUGGCUAGACUGCCUCUCUGGAUUCCUCGUCACUCAGCAGGGCAUCUCUGAGAGAAAUGCC [U29C G36A] was 1.63.
The same measure for UACGUAGGUGGUUUUCCCCUGAUAGUGCCAAGGGGGCCUGGAAGUUUGGACUGGGCAGAGCUCAACACAGCGUGGCAAAGUGGCUGUGGCUAGACUGCCUCUCUGGAUUCCUCGUCACUCAGCAGGCCAUCUCUGAGAGAAAUGCC [U29C G127C]: 1.58; for UACGUAGGUGGUUUUCCCCUGAUAGUGCCAAGGGGGCCUGGAAGUUUGGACUGGGCAGAGCUCAACACAGCGUGGCAAAGUGGCUGUGGCUAGACUGCCUCUCUGGAUUCCUCGUCACUCAGCAGGACAUCUCUGAGAGAAAUGCC [U29C G127A]: 0.64; for UACGUAGGUGGUUUUCCCCUGAUAGUGCCAAGGGGGCCUGGAAGUUUGGACUGGGCAGAGCUCAACACAGCGUGGCAAAGUGGCUGUGGCUAGACUGCCUCUCUGGAUCCCUCGUCACUCAGCAGGGCAUCUCUGAGAGAAAUGCC [U29C U109C]: 0.91.
Consider UACGUAGGUGGUUUUCCCCUGAUAGUGCCAAGGGGGCCUGGAAGUUUGGACUGGCCAGAGCUCAACACAGCGUGGCAAAGUGGCUGUGGCUAGACUGCCUCUCUGGAUUCCUCGUCACUCAGCAGGGCAUCUCUGAGAGAAAUGCC [U29C G55C], for which the self-cleavage came to 0.
As to UACGUAGGUGGUUUUCCCCUGAUAGUGCCAAGGGGGCCUGGAAGUUUGGACUGGGCAGAGCUCAACACAGCGUGGCAAAGAGGCUGUGGCUAGACUGCCUCUCUGGAUUCCUCGUCACUCAGCAGGGCAUCUCUGAGAGAAAUGCC [U29C U81A], the self-cleavage stood at 1.3.
On to UACGUAGGUGGUUUUCCCCUGAUAGUGCCAAGGGGGCCUGGAAGUUUGGACUGGGCAGAGCUCAACACAGCGUGGCAAAGCGGCUGUGGCUAGACUGCCUCUCUGGAUUCCUCGUCACUCAGCAGGGCAUCUCUGAGAGAAAUGCC [U29C U81C], for which the self-cleavage is 1.27.
The value for UACGUAGGUGGUUUUCCCCUGAUAGUGCCAAGGGGGCCUGGAAGUUUGGACUGGGCAGAGCUCAACACAUCGUGGCAAAGUGGCUGUGGCUAGACUGCCUCUCUGGAUUCCUCGUCACUCAGCAGGGCAUCUCUGAGAGAAAUGCC [U29C G70U] was 0.01.
With UACGUAGGUGGUUUUCCCCUGAUAGUGCCAAGGGGGCCUGGAAGUUUGGACUGGGCAGAACUCAACACAGCGUGGCAAAGUGGCUGUGGCUAGACUGCCUCUCUGGAUUCCUCGUCACUCAGCAGGGCAUCUCUGAGAGAAAUGCC [U29C G60A], the self-cleavage came to 0.02.
The same measure for UACGUAGGUGGUUUUCCCCUGAUAGUGCCAAGGGGGCCUGGAAGUUUGGACUGGGCAGAGCUCAACACAGCGUGGCAAAGUGGCUGUGGCUAGACUGCCUCUCUGGAUUCCUCAUCACUCAGCAGGGCAUCUCUGAGAGAAAUGCC [U29C G114A]: 1.38.
The value for UACGUAGGUGGUUUUCCCCUGAUAGUGCCAAGGGGGCCUGGAAGUUUGGACUGGGCAGAGCUCAACACAGCGUGGCAAAGUGGCUGUGGCUAGACUGCCUCUCUGGAUUCCUCCUCACUCAGCAGGGCAUCUCUGAGAGAAAUGCC [U29C G114C] was 1.49; that for UACGUAGGUGGUUUUCCCCUGAUAGUGCCAAGGGGGCCUGGAAGUUUGGACUGGGCAGAGCCCAACACAGCGUGGCAAAGUGGCUGUGGCUAGACUGCCUCUCUGGAUUCCUCGUCACUCAGCAGGGCAUCUCUGAGAGAAAUGCC [U29C U62C] was 0.15.
